Data reported in publication PMC6427009 (Scientific Reports, 2019).

Biological target: Hemagglutinin of Influenza A/California/07/2009 (H1N1) (Influenza A/California/07/2009 (H1N1), UniProt C3W5X2, fully glycosylated (7 glycosylation sites))
Experiment: HDX-MS
Conditions: both partners purified

B1: llama single-domain antibody SD38 (VHH)
VHH: EVQLVESGGGLVQPGGSLRLSCAVSISIFDIYAMDWYRQAPGKQRDLVATSFRDGSTNYADSVKGRFTISRDNAKNTLYLQMNSLKPEDTAVYLCHVSLYRDPLGVAGGMGVYWGKGALVTVSS
notes: also called Llama single domain SD38
binding result: binds
